Experiments:
[1] = molecular target: human IL-4 receptor alpha on cells (peripheral blood lymphocytes, primary B cells, TF-1, A549, PBMC) (human) (UniProt P24394); test: flow cytometry, human peripheral blood lymphocytes, 10 µg/ml
[2] = molecular target: cynomolgus IL-4 receptor alpha on peripheral blood lymphocytes (cynomolgus); test: flow cytometry, cynomolgus peripheral blood lymphocytes, 10 µg/ml
[3] = molecular target: human IL-4 receptor alpha on cells (peripheral blood lymphocytes, primary B cells, TF-1, A549, PBMC) (human) (UniProt P24394); test: cell-based or functional assay

% Positive [1]: 9%
MFI [1]: 3.2
% Positive [2]: 5%
MFI [2]: 1.9
% Positive for STAT-6 phosphorylation, TF-1 cells + IL-4 [3]: 72%
% Positive for STAT-6 phosphorylation, TF-1 cells + IL-13 [3]: 84%
MFI, STAT-6 phosphorylation, TF-1 cells + IL-4 [3]: 13.1
MFI, STAT-6 phosphorylation, TF-1 cells + IL-13 [3]: 18.6
Substance: wildtype tear lipocalin (gene product of pTLPC10) (from UniProt P31025 23-175)
